We go through two substances from paper PMC10842378.

The target of test [1] is FLAG-AP-DHX15 wild type (human) (UniProt O43143). As to the kind of experiment: proximity labelling.
For test [2] the target is unchanged. Briefly: split reporter.

Sequence of FLAG-AP-DHX15 wild type (human) (O43143 whole entry): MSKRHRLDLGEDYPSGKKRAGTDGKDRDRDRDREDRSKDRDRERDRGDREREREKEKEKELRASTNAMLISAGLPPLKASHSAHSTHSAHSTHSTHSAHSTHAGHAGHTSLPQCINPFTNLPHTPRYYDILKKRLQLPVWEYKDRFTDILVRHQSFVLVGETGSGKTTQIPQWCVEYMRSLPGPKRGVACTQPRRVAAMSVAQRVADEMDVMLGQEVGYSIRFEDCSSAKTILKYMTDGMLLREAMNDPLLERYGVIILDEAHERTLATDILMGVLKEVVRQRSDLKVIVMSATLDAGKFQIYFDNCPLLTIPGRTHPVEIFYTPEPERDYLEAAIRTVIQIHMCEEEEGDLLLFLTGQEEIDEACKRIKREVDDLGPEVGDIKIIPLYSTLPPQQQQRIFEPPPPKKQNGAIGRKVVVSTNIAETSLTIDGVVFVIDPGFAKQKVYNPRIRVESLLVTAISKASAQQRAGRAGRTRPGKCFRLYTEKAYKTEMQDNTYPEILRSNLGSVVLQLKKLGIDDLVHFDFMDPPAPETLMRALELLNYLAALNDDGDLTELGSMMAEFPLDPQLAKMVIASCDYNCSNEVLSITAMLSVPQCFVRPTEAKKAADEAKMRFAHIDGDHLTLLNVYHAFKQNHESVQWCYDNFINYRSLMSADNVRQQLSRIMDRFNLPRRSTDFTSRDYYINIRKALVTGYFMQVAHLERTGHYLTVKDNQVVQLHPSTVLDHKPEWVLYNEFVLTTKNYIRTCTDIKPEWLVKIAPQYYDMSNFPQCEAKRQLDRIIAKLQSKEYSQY

For “HA-SUGP1-EX with the G-patch domain deleted (ΔGp) (from UniProt Q8IWZ8 1-645) (natural protein)”, the fold increase of HA-SUGP1-EX pull-down in test [1] amounted to 1.9 fold.
Regarding “SUGP1 G-patch domain alone fused to an SV40 NLS (Gp-nls), HA-EX construct (domain or fragment)”, in test [2], the fold increase of total biotinylated protein against FL SUGP1 stood at 3.2 fold.
